Laboratory results: patent publication US12678474B2, “Screening of fixed-point coupling sites of cysteine-modified antibody-toxin conjugate (TDC)” (SICHUAN BAILI PHARMACEUTICAL CO. LTD., priority 2017, dated 2026)
Changes are numbered by the printed parent chain.

B1: 2A1-HC-Cys259ins: 2A1 antibody with cysteine inserted at heavy chain position 259 (SEQ ID NO: 28) (antibody)
heavy: DVQLQESGPSLVKPSQSLSLTCTVTGYSITSDFAWNWIRQFPGNKLEWMGYISYSGNTRYNPSLKSRISITRDTSKNQFFLQLNSVTIEDTATYYCVTAGRGFPYWGQGTLVTVSAASTKGPSVFPLAPSSKSTSGGTAALGCLVKDYFPEPVTVSWNSGALTSGVHTFPAVLQSSGLYSLSSVVTVPSSSLGTQTYICNVNHKPSNTKVDKRVEPKSCDKTHTCPPCPAPEFLGGPSVFLFPPKPKDTLMISRTPEVTCVCVVDVSHEDPEVKFNWYVDGVEVHNAKTKPREEQYNSTYRVVSVLTVLHQDWLNGKEYKCKVSNKALPAPIEKTISKAKGQPREPQVYTLPPSRDELTKNQVSLTCLVKGFYPSDIAVEWESNGQPENNYKTTPPVLDSDGSFFLYSKLTVDKSRWQQGNVFSCSVMHEALHNHYTQKSLSLSPG
light: DILMTQSPSSMSVSLGDTVSITCHSSQDINSNIGWLQQRPGKSFKGLIYHGTNLDDEVPSRFSGSGSGADYSLTISSLESEDFADYYCVQYAQFPWTFGGGTKLEIKRTVAAPSVFIFPPSDEQLKSGTASVVCLLNNFYPREAKVQWKVDNALQSGNSQESVTEQDSKDSTYSLSSTLTLSKADYEKHKVYACEVTHQGLSSPVTKSFNRGEC
B2: 2A1-HC-Cys387ins: 2A1 antibody with cysteine inserted at heavy chain position 387 (SEQ ID NO: 42) (antibody)
heavy: DVQLQESGPSLVKPSQSLSLTCTVTGYSITSDFAWNWIRQFPGNKLEWMGYISYSGNTRYNPSLKSRISITRDTSKNQFFLQLNSVTIEDTATYYCVTAGRGFPYWGQGTLVTVSAASTKGPSVFPLAPSSKSTSGGTAALGCLVKDYFPEPVTVSWNSGALTSGVHTFPAVLQSSGLYSLSSVVTVPSSSLGTQTYICNVNHKPSNTKVDKRVEPKSCDKTHTCPPCPAPEFLGGPSVFLFPPKPKDTLMISRTPEVTCVVVDVSHEDPEVKFNWYVDGVEVHNAKTKPREEQYNSTYRVVSVLTVLHQDWLNGKEYKCKVSNKALPAPIEKTISKAKGQPREPQVYTLPPSRDELTKNQVSLTCLVKGFYPSDIAVEWESNGQPENNCYKTTPPVLDSDGSFFLYSKLTVDKSRWQQGNVFSCSVMHEALHNHYTQKSLSLSPG
light: B1 light
B3: 2A1-HC-Cys354ins: 2A1 antibody with cysteine inserted at heavy chain position 354 (SEQ ID NO: 30) (antibody)
heavy: DVQLQESGPSLVKPSQSLSLTCTVTGYSITSDFAWNWIRQFPGNKLEWMGYISYSGNTRYNPSLKSRISITRDTSKNQFFLQLNSVTIEDTATYYCVTAGRGFPYWGQGTLVTVSAASTKGPSVFPLAPSSKSTSGGTAALGCLVKDYFPEPVTVSWNSGALTSGVHTFPAVLQSSGLYSLSSVVTVPSSSLGTQTYICNVNHKPSNTKVDKRVEPKSCDKTHTCPPCPAPEFLGGPSVFLFPPKPKDTLMISRTPEVTCVVVDVSHEDPEVKFNWYVDGVEVHNAKTKPREEQYNSTYRVVSVLTVLHQDWLNGKEYKCKVSNKALPAPIEKTISKAKGQPREPQVYTLPPSRDECLTKNQVSLTCLVKGFYPSDIAVEWESNGQPENNYKTTPPVLDSDGSFFLYSKLTVDKSRWQQGNVFSCSVMHEALHNHYTQKSLSLSPG
light: B1 light
B4: 2A1-HC-Cys357ins: 2A1 antibody with cysteine inserted at heavy chain position 357 (SEQ ID NO: 34) (antibody)
heavy: B3 heavy with C357L, L358T, T359K, K360C
light: B1 light
B5: 2A1-HC-Cys410ins: 2A1 antibody with cysteine inserted at heavy chain position 410 (SEQ ID NO: 44) (antibody)
heavy: DVQLQESGPSLVKPSQSLSLTCTVTGYSITSDFAWNWIRQFPGNKLEWMGYISYSGNTRYNPSLKSRISITRDTSKNQFFLQLNSVTIEDTATYYCVTAGRGFPYWGQGTLVTVSAASTKGPSVFPLAPSSKSTSGGTAALGCLVKDYFPEPVTVSWNSGALTSGVHTFPAVLQSSGLYSLSSVVTVPSSSLGTQTYICNVNHKPSNTKVDKRVEPKSCDKTHTCPPCPAPEFLGGPSVFLFPPKPKDTLMISRTPEVTCVVVDVSHEDPEVKFNWYVDGVEVHNAKTKPREEQYNSTYRVVSVLTVLHQDWLNGKEYKCKVSNKALPAPIEKTISKAKGQPREPQVYTLPPSRDELTKNQVSLTCLVKGFYPSDIAVEWESNGQPENNYKTTPPVLDSDGSFFLYSKLTVDCKSRWQQGNVFSCSVMHEALHNHYTQKSLSLSPG
light: B1 light
B6: 2A1-HC-Cys355ins: 2A1 antibody with cysteine inserted at heavy chain position 355 (SEQ ID NO: 32) (antibody)
heavy: B3 heavy with C357L, L358C
light: B1 light
B7: 2A1-HC-Cys378ins: 2A1 antibody with cysteine inserted at heavy chain position 378 (SEQ ID NO: 36) (antibody)
heavy: B2 heavy with E381C, S382E, N383S, G384N, Q385G, P386Q, E387P, N388E, C390N
light: B1 light

Columns and labels:
[1] = target: T1, Recombinant EGFRVIII-His*6 antigen (Homo sapiens, UniProt P00533, DELINS30-297G); experiment: ELISA relative affinity for EGFRvIII; type: binding; settings: for EC50: EGFRvIII-coated plates, A450, read-out: EC50 (nM), mutant antibody affinity
T1 construct: His*6
Description: Insertion Mutation Modification and Parent Antibody 2A1 for EGFRvIII • ELISA was used to compare the relative affinities of 2A1-LC-Cys110ins-mc-vc-PAB-MMAE TDC, 2A1-LC-Cys111ins-mc-vc-PAB-MMAE TDC, 2A1-LC-Cys142ins-mc-vc-PAB-MMAE TDC, 2A1-HC-Cys254ins-mc-vc-PAB-MMAE TDC, 2A1-HC-Cys255ins-mc-vc-PAB-MMAE TDC, 2A1-HC-Cys258ins-mc-vc-PAB-MMAE TDC, 2A1-HC-Cys259ins-mc-vc-PAB-MMAE TDC, 2A1-HC-Cys354ins-mc-vc-PAB-MMAE TDC, 2A1-HC-Cys355ins-mc-vc-PAB-MMAE TDC, 2A1-HC-Cys357ins-mc-vc-PAB-MMAE TDC, 2A1-HC-Cys378ins-mc-vc-PAB-MMAE TDC, 2A1-HC-Cys379ins-mc-vc-PAB-MMAE TDC, 2A1-HC-Cys386ins-mc-vc-PAB-MMAE TDC, 2A1-HC-Cys387ins-mc-vc-PAB-MMAE TDC, 2A1-HC-Cys410ins-mc-vc-PAB-MMAE TDC, and 2A1 for EGFRvIII. The specific process used was as follows:
Recombinant […]-His*6 antigen was used to coat plates; fish skin gelatin was used as a seal; dilution of each insertion mutant antibody was performed separately, up to a maximum concentration 10 μg/ml and a 4-fold gradient dilution was performed for a total of 11 concentrations; HRP-labeled secondary antibodies were used for incubation; TMB was used for development and absorption detection was performed at 450 nm.

[2] = test system: EGFRwt-overexpressing human skin squamous cell carcinoma cell line A431; experiment: MTS cytotoxicity (cell viability) assay, A431; type: cell-based; settings: antibodies; 72 hours
Experimental: (§1) TDC cytotoxic activity was determined via the following experimental procedure: TDC was added to EGFR-overexpressing or […]-expressing human tumor cell culture medium, and cell viability was determined after 72 hours of cell culture. Cell-based in vitro experiments were used to determine cell viability, cytotoxicity and programmed cell death induced by TDC constituted by the present invention.
(§2) In vitro efficacy of antibody-toxin conjugates was determined via a cell proliferation assay. A CellTiter ^96® AqueousOne Solution Cell was Proliferation Assay purchased commercially from Promega Corp. (Madison, WI). CellTiter ^96® Aqueous One Solution Cell Proliferation Assay (a) is a colorimetric method used to detect the number of living cells in cell proliferation and cytotoxicity experiments. The above reagent contains the novel tetrazole compound [3-(4,5-dimethylthiazol-2-yl)-5-(3-carboxymethoxyphenyl)-2-(4-sulfophenyl)-2H-tetrazolium, inner salt; MTS) as well as an electronic coupling agent (phenazine ethosulfate; PES). […] This convenient “single solution” model is an improvement on the first generation of the CellTiter ^96® Aqueous Assay, in which the electronic coupling agent PMS was supplied separately from the MTS solution. MTS (Owen's reagent) is reduced by cellular organisms into a colored formazan product, which can be directly dissolved in culture medium (FIG. 1). This conversion is likely facilitated by NADPH NADH produced by dehydrogenase present in metabolically active cells. For the assay, a small amount of CellTiter ^96® Aqueous One Solution Reagent is added directly to the medium present in the wells of the culture plate, after which incubation is performed for 1 to 4 hours, followed by reading of the absorbance value at 490 nm using a microplate reader.
(§3) The amount of formazan product detected at 490 nm is proportional to the number of viable cells in culture. Because the formazan product of MTS is soluble in tissue culture medium, CellTiter ^96® Aqueous One Solution Assay requires fewer steps than the MTT or INT methods. A431 (EGFR-overexpressing cells) and U87-[…] (an […] mutant stable cell line) were used in the present invention as an investigative system for performing in vitro efficacy assays. In 96-well plates, cells were plated at 6000 cells/well and 24 hours later, antibody spiking was carried out. […] Cell viability was assayed via MTS 72 hours after treatment.

[3] = test system: EFGRvIII-overexpressing human glioma cell line U87-EGFRvIII; experiment: MTS cytotoxicity (cell viability) assay, U87-EGFRvIII; type: cell-based; settings: antibodies; 72 hours; read-out: IC50, U87MG-EGFRvIII (MTS)
Experimental: as §1, §2, §3

Molecule | Affinity for EGFRvIII relative to 2A1 (in words) [1] | EC50 [1] [nM] | IC50 [2] [µM] | IC50 [3] [µM]
B1 | maintained 2A1 affinity | 0.0431 | > 10 | > 10
B2 | – | 0.0452 | > 10 | > 10
B3 | maintained 2A1 affinity | 0.0405 | > 10 | > 10
B4 | – | 0.0403 | > 10 | > 10
B5 | – | 0.042 | > 10 | > 10
B6 | maintained 2A1 affinity | 0.0415 | > 10 | > 10
B7 | – | 0.0404 | > 10 | > 10
